This note sets out measurements from publication PMC11757908.

In the test the target is trastuzumab (human). The test can be described thus: charge-stabilized self-interaction nanoparticle spectroscopy.

trastuzumab (antibody) had a CS-SINS score of 0.1.
